Laboratory results reported in article PMC2925374, “Oligomerization of Uukuniemi virus nucleocapsid protein” (Virology Journal, 2010).
Residue numbers refer to the chain shown, from its start. In names and notes the source's numbering stands. Several values for one entry are separate records, joined by “and”; a condition that tells them apart may be missing. Equal entries are not always repeated.

B1: Uukuniemi virus nucleocapsid (N) protein, full-length wild type (pcDNA-UUKV-N) (natural protein)
chain: MAMPENWVRFAIEISDAQWEEEEIREFINLFQYQGFDAAVVLSRIFELAKKADLSRDQMLRDIRALITLHLTRGNKLSSIEKRLSEEGKKEFALLKARYQLVDKAKEAADLTLSRIAIANAGLTCRILPQVVAHTAVTRSRMESLSADYPVCMMHNAFAGLIDETLPEDSIKALVDAHRLYLLEFSRTINVKHRGMEAKEILDANDSALQAGLASSFLTPSQKRAYLLSFKLVDGNGKVNKAVQQAATVLRSLI
notes: Uukuniemi virus nucleocapsid (N) protein, 254 aa residues; No tag is mentioned; detected with a rabbit antiserum against UUKV-N; also called UUKV-N protein; wt N protein; source: COS-7, transfected (pcDNA-UUKV-N), in lysate
B2: UUKV-N protein point mutant F27A, mammalian two-hybrid fusions (natural protein)
chain: B1 chain with F27A
notes: Uukuniemi virus nucleocapsid (N) protein, 254 aa residues; Mutation introduced into both the DNA-BD and the DNA-AD fusion; no chain carries both domains; source: HeLa, transfected, mammalian two-hybrid fusions
B3: UUKV-N protein double mutant QQ244,245AA, mammalian two-hybrid fusions (natural protein)
chain: B1 chain with Q244A, Q245A
notes: Uukuniemi virus nucleocapsid (N) protein, 254 aa residues; source: HeLa, transfected, mammalian two-hybrid fusions
B4: UUKV-N protein point mutant R251A, mammalian two-hybrid fusions (natural protein)
chain: B1 chain with R251A
notes: as for B3
B5: UUKV-N protein point mutant W7A, mammalian two-hybrid fusions (natural protein)
chain: B1 chain with W7A
notes: as for B2
B6: UUKV-N protein point mutant I24A, mammalian two-hybrid fusions (natural protein)
chain: B1 chain with I24A
notes: as for B2
B7: UUKV-N protein point mutant I14A, mammalian two-hybrid fusions (natural protein)
chain: B1 chain with I14A
notes: as for B2
B8: UUKV-N protein point mutant F10A, mammalian two-hybrid fusions (natural protein)
chain: B1 chain with F10A
notes: as for B2
B9: UUKV-N protein point mutant W19A, mammalian two-hybrid fusions (natural protein)
chain: B1 chain with W19A
notes: as for B2
B10: UUKV-N protein point mutant Y33A, mammalian two-hybrid fusions (natural protein)
chain: B1 chain with Y33A
notes: Uukuniemi virus nucleocapsid (N) protein, 254 aa residues; Mutation introduced into both the DNA-BD and the DNA-AD fusion; no chain carries both domains; also called negative control mutant; source: HeLa, transfected, mammalian two-hybrid fusions
B11: UUKV-N protein point mutant F31A, mammalian two-hybrid fusions (natural protein)
chain: B1 chain with F31A
notes: as for B2

Key:
[1] = biological target: the molecule itself; assay: cross-linking; lysates of transfected COS-7 cells (PBS pH 7.4, freeze-thawed), 0.1 or 0.5 mM BS3, 30 min at room temperature, quenched with 50 mM Tris-HCl pH 7.5; 10% SDS-PAGE, immunoblot with rabbit antiserum against UUKV-N
[2] = biological target: the molecule itself; assay: two-hybrid; mammalian two-hybrid in HeLa cells: GAL4 DNA-BD (pM) and VP16 DNA-AD (pVP) fusions, pG5luc firefly luciferase normalised to Renilla luciferase, 24 h post-transfection; percent of the wt N-N interaction

Protein | stoichiometry N [1] | M2H % of interaction [2] [%]
B1 | 2 and 3 | –
B2 | – | > 100
B3 | – | > 100
B4 | – | 96 ± 11
B5 | – | > 100
B6 | – | 56 ± 12
B7 | – | 60 ± 18
B8 | – | 34 ± 4
B9 | – | > 100
B10 | – | > 100
B11 | – | 23 ± 5
